# Laboratory results published in patent publication US11111484B2, “Streptococcus bacteriophage lysins for detection and treatment of gram positive bacteria” (priority 2011, dated 2021).
# Entries after “also recorded” stand apart in the source; their conditions may differ. Like-named read-outs stand apart in the source and are kept apart here.
# Key:
# S. simulans TNK3 = assay: ΔPlySs1 OD600 lysis, 1 hr, optimal buffering conditions; format: cell-based, Staphylococcus simulans
# S. gordonii 10558 = assay: as above; format: cell-based, Streptococcus gordonii
# B. cereus 14579 = assay: as above; format: cell-based, Bacillus cereus
# S. equi 700400 = assay: as above; format: cell-based, Streptococcus equi
# S. pyogenes D471 = assay: as above; format: cell-based, Streptococcus pyogenes
# S. uberis 27598 = assay: as above; format: cell-based
# S. dysgalactiae 21597 = assay: as above; format: cell-based, Streptococcus dysgalactiae
# S. sanguinis 10556 = assay: as above; format: cell-based, Streptococcus sanguinis
# B. anthracis ΔSterne = format: cell-based, Bacillus anthracis
# [1] = tested on: Group E streptococci K131; assay: ΔPlySs1 OD600 lysis, 1 hr, optimal buffering conditions; format: cell-based
# MRSA strain MW2 = assay: resistance assay, exposure to incrementally increasing concentrations; format: cell-based, Staphylococcus aureus; settings: concentration doubled daily from 1/32 to 4× MIC over 8 days
# S. pyogenes strains = assay: PlySs2 lytic activity against species and strains (FIG. 25); format: cell-based, Streptococcus pyogenes; settings: S. pyogenes serotypes M1, M3, M4, M6, M18, M49, variant without M protein
# Procedure: FIG. 25 provides PlySs2 activity against different species and strains. Log-phase cultures were exposed to 32 μg/ml PlySs2 for 60 minutes in phosphate buffer. The final OD600 of the treated samples were divided by the final OD600 of the untreated samples to generate the normalized values above. Multiple Staphylococci (including, but not limited to: MRSA, MSSA, and VISA), Streptococci, Listeria, Enterococci, and Bacilli were tested for susceptibility to PlySs2 activity. Escherichia and Pseudomonas were tested as Gram-negative controls.
# [2] = tested on: vancomycin intermediate sensitivity Staphylococcus aureus (VISA) and vancomycin resistant Staphylococcus aureus (VRSA) strains; assay: in vitro tests / standard MIC analysis of staphylococci (FIG. 18); format: cell-based; settings: comparable in vitro tests
# Procedure: FIG. 18. PlySS2 was tested by standard MIC analysis for its ability to kill strains of staphylococci. Included in the testing were resistant staphylococci such as Vancomycin resistant (VRSA), Vancomycin intermediate (VISA) and methicillin resistant (MRSA) staphylococci. The three VRSA strains tested represent half of all known isolates.
# L. monocytogenes = assay: CFU studies, bactericidal effect; format: cell-based, Listeria monocytogenes; settings: 128 μg/ml PlySs2, 60 mins
# Procedure: (§1) Log-phase bacteria were resuspended in buffer A to an OD600 of 0.1 (=0.5 McFarland≈10^8 CFU/ml). PlySs2 was added at 128 μg/ml to polypropylene microtiter plates (Costar) in triplicate for each test organism. Plates were sealed and incubated at 37° C. with shaking every 5 minutes for 1 hour. After 1 hour of incubation, cells were serially diluted in 10-fold increments and plated on BHI. Triplicate controls for each strain were performed with buffer B replacing PlySs2.
# E. coli = assay: CFU studies, bactericidal effect; format: cell-based, Escherichia coli; settings: E. coli negative control; 128 μg/ml PlySs2; 60 mins
# Procedure: as §1
# S. suis 7997 = assay: PlySs2 biochemical characterization, turbidity reduction (OD600)
# MRSA MW2 = assay: CFU studies, bactericidal effect; format: cell-based, Staphylococcus aureus; settings: 128 μg/ml PlySs2, 1 hour
# Procedure: as §1
molecule,measurement,setting,value
"ΔPlySs1: truncated PlySs1 lysin, SEQ ID NO:2, N-terminal 254 amino acids: only N-terminal enzymatic and central binding domains (protein, listed as Streptococcus suis) MTINLETSIRWMSDRVGKVSYSMDYRNGPNSYDCSSAVYYALMAGGAISAGWAVNTEYMHDWLIRNGYVLVAENKPFNAQRHDVCILGKRGYSSGAGGHVVIFVDNVNVIHCNYARNGISIDNYNQVHRGMYYYLYRPANQPSISNKSLDQLVKETLAGVHGNGDTRKASLGSQYEAVMAVINGKASASEKSDEELAREVLAGKHGAGEDRKRSLGPRYEPVQAKVNELLKAKEKPSETAKNEPQTVQFKEDGDL",lysis value after 1 hr (treated/untreated OD600 ratio),S. simulans TNK3; 6.5 μg/ml,0.96
same,lysis value after 1 hr (treated/untreated OD600 ratio),S. simulans TNK3; 13 μg/ml,1.00
same,lysis value after 1 hr (treated/untreated OD600 ratio),S. simulans TNK3; 30 μg/ml,1.00
same,lysis value after 1 hr (treated/untreated OD600 ratio),S. simulans TNK3; 65 μg/ml,1.00
same,lysis value after 1 hr (treated/untreated OD600 ratio),S. simulans TNK3; 130 μg/ml,0.96
same,lysis value after 1 hr (treated/untreated OD600 ratio),S. gordonii 10558; 6.5 μg/ml,0.76
same,lysis value after 1 hr (treated/untreated OD600 ratio),S. gordonii 10558; 13 μg/ml,0.32
same,lysis value after 1 hr (treated/untreated OD600 ratio),S. gordonii 10558; 30 μg/ml,0.19
same,lysis value after 1 hr (treated/untreated OD600 ratio),S. gordonii 10558; 65 μg/ml,0.09
same,lysis value after 1 hr (treated/untreated OD600 ratio),S. gordonii 10558; 130 μg/ml,0.06
same,lysis value after 1 hr (treated/untreated OD600 ratio),B. cereus 14579; 6.5 μg/ml,0.93
same,lysis value after 1 hr (treated/untreated OD600 ratio),B. cereus 14579; 13 μg/ml,0.92
same,lysis value after 1 hr (treated/untreated OD600 ratio),B. cereus 14579; 30 μg/ml,0.86
same,lysis value after 1 hr (treated/untreated OD600 ratio),B. cereus 14579; 65 μg/ml,0.90
same,lysis value after 1 hr (treated/untreated OD600 ratio),B. cereus 14579; 130 μg/ml,0.86
same,lysis value after 1 hr (treated/untreated OD600 ratio),S. equi 700400; 6.5 μg/ml,0.48
same,lysis value after 1 hr (treated/untreated OD600 ratio),S. equi 700400; 13 μg/ml,0.25
same,lysis value after 1 hr (treated/untreated OD600 ratio),S. equi 700400; 30 μg/ml,0.15
same,lysis value after 1 hr (treated/untreated OD600 ratio),S. equi 700400; 65 μg/ml,0.07
same,lysis value after 1 hr (treated/untreated OD600 ratio),S. equi 700400; 130 μg/ml,0.09
same,lysis value after 1 hr (treated/untreated OD600 ratio),S. pyogenes D471; 6.5 μg/ml,0.39
same,lysis value after 1 hr (treated/untreated OD600 ratio),S. pyogenes D471; 13 μg/ml,0.27
same,lysis value after 1 hr (treated/untreated OD600 ratio),S. pyogenes D471; 30 μg/ml,0.17
same,lysis value after 1 hr (treated/untreated OD600 ratio),S. pyogenes D471; 65 μg/ml,0.13
same,lysis value after 1 hr (treated/untreated OD600 ratio),S. pyogenes D471; 130 μg/ml,0.09
same,lysis value after 1 hr (treated/untreated OD600 ratio),S. uberis 27598; 6.5 μg/ml,0.42
same,lysis value after 1 hr (treated/untreated OD600 ratio),S. uberis 27598; 13 μg/ml,0.23
same,lysis value after 1 hr (treated/untreated OD600 ratio),S. uberis 27598; 30 μg/ml,0.16
same,lysis value after 1 hr (treated/untreated OD600 ratio),S. uberis 27598; 65 μg/ml,0.14
same,lysis value after 1 hr (treated/untreated OD600 ratio),S. uberis 27598; 130 μg/ml,0.12
same,lysis value after 1 hr (treated/untreated OD600 ratio),S. dysgalactiae 21597; 6.5 μg/ml,0.26
same,lysis value after 1 hr (treated/untreated OD600 ratio),S. dysgalactiae 21597; 13 μg/ml,0.18
same,lysis value after 1 hr (treated/untreated OD600 ratio),S. dysgalactiae 21597; 30 μg/ml,0.12
same,lysis value after 1 hr (treated/untreated OD600 ratio),S. dysgalactiae 21597; 65 μg/ml,0.10
same,lysis value after 1 hr (treated/untreated OD600 ratio),S. dysgalactiae 21597; 130 μg/ml,0.09
same,lysis value after 1 hr (treated/untreated OD600 ratio),S. sanguinis 10556; 6.5 μg/ml,0.48
same,lysis value after 1 hr (treated/untreated OD600 ratio),S. sanguinis 10556; 13 μg/ml,0.44
same,lysis value after 1 hr (treated/untreated OD600 ratio),S. sanguinis 10556; 30 μg/ml,0.28
same,lysis value after 1 hr (treated/untreated OD600 ratio),S. sanguinis 10556; 65 μg/ml,0.21
same,lysis value after 1 hr (treated/untreated OD600 ratio),S. sanguinis 10556; 130 μg/ml,0.11
same,lysis value after 1 hr (treated/untreated OD600 ratio),B. anthracis ΔSterne; 6.5 μg/ml,1.02
same,lysis value after 1 hr (treated/untreated OD600 ratio),B. anthracis ΔSterne; 30 μg/ml,1.02
same,lysis value after 1 hr (treated/untreated OD600 ratio),B. anthracis ΔSterne; 65 μg/ml,0.98
same,lysis value after 1 hr (treated/untreated OD600 ratio),B. anthracis ΔSterne; 130 μg/ml,0.90
same,lysis value after 1 hr (treated/untreated OD600 ratio),[1]; 6.5 μg/ml,0.69
same,lysis value after 1 hr (treated/untreated OD600 ratio),[1]; 13 μg/ml,0.50
same,lysis value after 1 hr (treated/untreated OD600 ratio),[1]; 30 μg/ml,0.33
same,lysis value after 1 hr (treated/untreated OD600 ratio),[1]; 65 μg/ml,0.22
same,lysis value after 1 hr (treated/untreated OD600 ratio),[1]; 130 μg/ml,0.15
"PlySs2: Streptococcus suis prophage lysin, SEQ ID NO:3; N-terminal CHAP domain and C-terminal SH3-type 5 domain (protein, listed as Streptococcus suis) MTTVNEALNNVRAQVGSGVSVGNGECYALASWYERMISPDATVGLGAGVGWVSGAIGDTISAKNIGSSYNWQANGWTVSTSGPFKAGQIVTLGATPGNPYGHVVIVEAVDGDRLTILEQNYGGKRYPVRNYYSAASYRQQVVHYITPPGTVAQSAPNLAGSRSYRETGTMTVTVDALNVRRAPNTSGEIVAVYKRGESFDYDTVIIDVNGYVWVSYIGGSGKRNYVATGATKDGKRFGNAWGTFK",development of resistance,MRSA strain MW2,"Neither S. aureus strain developed resistance; also recorded: None of MRSA strain MW2, MSSA strain 8325, nor S. pyogenes strain 5005 developed resistance"
same,lytic activity,S. pyogenes strains,had activity against all strains of S. pyogenes
same,effectiveness against VISA and VRSA,[2],similarly effective
same,reduction in CFU counts,L. monocytogenes,dramatically reduced
same,reduction in CFU counts,E. coli,no reduction in number
same,consecutive room temperature to −80° C. freeze-thaws without effect on activity,S. suis 7997,10
same,effect of NaCl on bacteriolysis,"S. suis 7997; 0-1000 mM NaCl, constant enzyme concentration",bacteriolysis decreased from 0-1000 mM NaCl
same,effect of EDTA on lysis,"S. suis 7997; 15 mM Na3PO4, pH 8.0, various EDTA concentrations",impeded PlySs2-induced lysis
same,activity after 15 days of 4° C. incubation,"S. suis 7997; 4° C., 15 days",no observable decrease in activity; also recorded: stable
same,activity after incubation at 37° C. for 24 hours,"S. suis 7997; 37° C., 24 hours",retained full activity; also recorded: stable
same,stability up to 24 hours at 37° C. in buffer,"S. suis 7997; 37° C., 24 hours, killing of strain 7997",> 90%
same,activity after 48-hour 37° C. incubation,"S. suis 7997; 37° C., 48 hours",diminished activity
same,activity maintained after 48 hours at 37° C.,"S. suis 7997; 37° C., 48 hours",at least 50%
same,temperature at which activity completely abolished,S. suis 7997; 30 min incubation,60 °C
same,pH of maximal lysis in BTP,S. suis 7997; BTP buffer pH 7.0-9.7,9.7
same,acute activity up to pH,S. suis 7997; Bis-tris propane (BTP) buffer,≤ 9.7
same,activity down to pH,S. suis 7997; PlySs2 32 μg/ml,≥ 6.0
same,effect of excess DTT on activity,S. suis 7997; data not shown,no impact
same,pH of strongest activity,"S. suis 7997; phosphate/citrate buffer pH 4.6-8.0, PlySs2 32 μg/ml",8.0
same,activity retained on storage in buffer at −80° C.,S. suis 7997; up to at least 7 months at −80° C.,~100%
same,NaCl concentration of greatest activity,S. suis 7997; various NaCl concentrations,0 mM
same,reduction of colony forming units (CFUs),MRSA MW2,5 logs
